The target in experiment [1] is T1, human E-selectin on CHO-K1 transfectant cells (human, UniProt P16581 22-610).
T1 construct: whole, on cells; also called CHO-E Selectin; CHO-E selectin
T1 sequence (looked up): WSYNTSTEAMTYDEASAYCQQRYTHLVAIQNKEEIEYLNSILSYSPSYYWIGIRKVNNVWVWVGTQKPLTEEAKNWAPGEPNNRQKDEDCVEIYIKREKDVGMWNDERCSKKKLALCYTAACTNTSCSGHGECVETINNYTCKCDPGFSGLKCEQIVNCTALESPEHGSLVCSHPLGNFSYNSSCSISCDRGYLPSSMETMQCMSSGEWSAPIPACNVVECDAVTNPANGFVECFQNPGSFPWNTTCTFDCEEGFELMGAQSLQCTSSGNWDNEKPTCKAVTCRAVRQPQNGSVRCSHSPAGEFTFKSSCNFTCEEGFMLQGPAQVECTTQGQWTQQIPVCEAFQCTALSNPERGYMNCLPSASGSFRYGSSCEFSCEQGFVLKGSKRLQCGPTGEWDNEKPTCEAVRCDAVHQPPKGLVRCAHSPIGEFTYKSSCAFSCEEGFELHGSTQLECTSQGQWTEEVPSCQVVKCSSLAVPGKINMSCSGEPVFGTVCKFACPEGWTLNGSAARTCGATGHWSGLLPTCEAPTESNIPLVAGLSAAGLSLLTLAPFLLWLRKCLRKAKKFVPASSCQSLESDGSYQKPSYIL
Description: flow cytometry on CHO-K1 transfectants. The method, then:
(§1) 2×10⁵ cells were incubated on ice for 30 minutes in FACS buffer (PBS containing 1% bovine serum albumin and 0.2% sodium azide) with 1 μg of test antibody or buffer alone. After incubation, cells were washed three times with FACS buffer and subsequently incubated for another 30 minutes with PE-conjugated donkey anti-human IgG F(ab′)2 fragment (Jackson ImmunoResearch). After washing three times with FACS buffer, relative cell fluorescence was analyzed by flow cytometry using a Cyan (DAKOCytomation).

The target of experiment [2] is T2, human P-selectin on CHO-K1 transfectant cells (human, UniProt P16109 42-830).
T2 construct: whole, on cells; also called CHO-P selectin
T2 sequence (looked up): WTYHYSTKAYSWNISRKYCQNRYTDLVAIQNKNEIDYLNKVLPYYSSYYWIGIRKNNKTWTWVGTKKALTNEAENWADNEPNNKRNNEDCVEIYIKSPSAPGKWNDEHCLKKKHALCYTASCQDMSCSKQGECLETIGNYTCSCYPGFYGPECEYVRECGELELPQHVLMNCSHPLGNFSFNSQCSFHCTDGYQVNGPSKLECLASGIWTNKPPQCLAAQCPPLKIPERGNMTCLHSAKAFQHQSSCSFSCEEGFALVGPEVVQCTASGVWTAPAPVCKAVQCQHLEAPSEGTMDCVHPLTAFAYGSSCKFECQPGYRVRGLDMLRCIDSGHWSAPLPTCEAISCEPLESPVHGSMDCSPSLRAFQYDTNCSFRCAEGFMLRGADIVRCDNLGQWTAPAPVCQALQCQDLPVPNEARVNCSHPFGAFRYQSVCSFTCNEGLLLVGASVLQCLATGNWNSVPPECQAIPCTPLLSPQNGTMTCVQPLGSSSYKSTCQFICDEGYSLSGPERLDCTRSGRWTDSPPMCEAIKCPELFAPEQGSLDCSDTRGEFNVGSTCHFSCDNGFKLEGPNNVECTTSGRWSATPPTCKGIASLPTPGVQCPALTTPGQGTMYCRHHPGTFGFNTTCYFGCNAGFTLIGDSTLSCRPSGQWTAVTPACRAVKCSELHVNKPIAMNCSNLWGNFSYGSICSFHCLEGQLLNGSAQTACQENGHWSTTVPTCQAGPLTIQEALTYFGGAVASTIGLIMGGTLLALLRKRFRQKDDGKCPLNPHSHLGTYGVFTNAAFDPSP
Description: flow cytometry on CHO-K1 transfectants. On the procedure: as §1

The target of experiment [3] is T3, recombinant soluble human L-selectin (human, UniProt P14151 39-332).
T3 construct: extracellular domain; The residue numbers 1-279 count on the mature protein, not on the precursor
T3 sequence (looked up): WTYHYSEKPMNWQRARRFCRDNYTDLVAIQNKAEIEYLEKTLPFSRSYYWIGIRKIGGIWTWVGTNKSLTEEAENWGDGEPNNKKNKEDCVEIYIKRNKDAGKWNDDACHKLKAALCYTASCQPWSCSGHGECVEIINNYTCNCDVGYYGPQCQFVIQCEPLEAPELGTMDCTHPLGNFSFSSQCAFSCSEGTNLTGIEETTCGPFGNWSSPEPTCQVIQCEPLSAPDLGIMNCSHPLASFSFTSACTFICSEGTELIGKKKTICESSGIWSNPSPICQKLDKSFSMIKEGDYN
The experiment in a line: competition ELISA on coated soluble human L-selectin; competitor of biotinylated ChD3. The method, then: ELISA plates were coated with 0.25 μg/ml soluble human L-selectin in 0.2 M sodium carbonate buffer (pH 9.4) and blocked with SuperBlock blocking buffer (Pierce). […] As controls, humanized anti-human L-selectin monoclonal antibody HuDREG55 (Co et al., Immunotechol. 4:253-266 (1999)) and humanized anti-human HLA-DR monoclonal antibody Hu1D10 (Kostelny et al., Int. J. Cancer 93:556-565 (2001)) were used. ELISA plates were incubated at room temperature for 2 hr. After washing the wells with Washing Buffer (PBS containing 0.1% Tween 20), 100 μl of 1 μg/ml HRP-conjugated streptavidin (Pierce) in ELISA buffer was added to each well. ELISA plates were incubated at room temperature for 60 min and washed with Washing Buffer. For color development, 100 μl/well of ABTS substrate was added. Color development was stopped by adding 100 μl/well of 2% oxalic acid. Absorbance was read at 415 nm.
(In an ELISA, binding on a coated surface is turned into a signal by an enzyme label.)

Experiment [4] deals with T2, human P-selectin on CHO-K1 transfectant …. Description: flow cytometry on CHO-K1 transfectants; panel H read as CHO-P selectin. On the procedure:
as §1
A general note: A flow cytometer gives signals particle by particle.

From patent US20040260068A1 (published 2004) come the findings set out here.

B1: humanized anti-L-selectin antibody D3 (antibody, V domains shown)
VH: EVQLLESGGGLVQPGGSLRLSCAASGFSIGSYNMHWVRQAPGKGLEWVAGISGAGSRTAWYGAAVKGRATISRDNAKNTVYLQMNSLRAEDTAVYYCAKDYGGSGSPWYGWGAASWIDAWGQGTLVTVSS
VL: SSELTQDPAVSVALGQTVRITCSGGSYYGWYQQKPGQAPVTVIYDNDKRPSDIPSRFSGSKSGSTGSLTITGAQAEDEADYYCGSADSAYVGIFGGGTKLTVL
notes: Transiently expressed in 293-H cells; also called HuD3; humanized D3
The IC50 is the concentration needed to halve the response being measured. For the molecule B1, the binding result in experiment [1] and in experiment [2] was “no binding (tested: 1 µg of test antibody)” each time. For the same molecule, the IC50 in experiment [3] is 2.9 µg/mL.

B2: chicken-human chimeric anti-L-selectin antibody D3 (antibody, V domains shown)
VH: AVTLDESGGGLQTPGGALSLVCRASGFSIGSYNMHWVRQAPGKGLEWVAGISGAGSRTAWYGAAVKGRATISRDNGQSTVRLQLNNLRAEDTGTYYCAKDYGGSGSPWYGWGAASWIDAWGHGTEVIVSS
VL: ALTQPASVSANPGETVKITCSGGSYYGWYQQKSPGSAPVTVIYDNDKRPSDIPSRFSGSKSGSTGTLTITGVQAEDEAVYFCGSADSAYVGIFGAGTTLTVL
notes: Transiently expressed in 293-H cells; also called ChD3; chimeric D3
Consider B2, for which the binding result in experiment [1] and in experiment [4] was “no binding (tested: 1 µg of test antibody)” each time. In addition, the IC50 in experiment [3] was 3.4 µg/mL.
